Substrate: O=[N+]([O-])c1ccccc1O[C@@H]1O[C@H](CO)[C@H](O)[C@H](O)[C@H]1O
Experiment: purified protein
Type: biochemical, Geobacillus kaustophilus
Conditions: free enzyme, not displayed on spores, ONPG 0.83-20 mM, general assay printed as 20 mM potassium phosphate pH 6.0, 75 °C (spore assay)

B1: Bsβ–Gal (Geobacillus kaustophilus) (protein)
chain: MNVLSSICYGGDYNPEQWPEEIWYEDAKLMQKAGVNLVSLGIFSWSKIEPSDGVFDFEWLDKVIDILYDHGVYINLGTATATTPAWFVKKYPDSLPIDESGVILSFGSRQHYCPNHPQLITHIKRLVRAIAERYKNHPALKMWHVNNEYACHVSKCFCENCAVAFRKWLKERYKTIDELNERWGTNFWGQRYNHWDEINPPRKAPTFINPSQELDYYRFMNDSILKLFLTEKEILREVTPDIPVSTNFMGSFKPLNYFQWAQHVDIVTWDSYPDPREGLPIQHAMMNDLMRSLRKGQPFILMEQVTSHVNWRDINVPKPPGVMRLWSYATIARGADGIMFFQWRQSRAGAEKFHGAMVPHFLNENNRIYREVTQLGQELKKLDCLVGSRIKAEVAIIFDWENWWAVELSSKPHNKLRYIPIVEAYYRELYKRNIAVDFVRPSDDLTKYKVVIAPMLYMVKEGEDENLRQFVANGGTLIVSFFSGIVDENDRVHLGGYPGPLRDILGIFVEEFVPYPETKVNKIYSNDGEYDCTTWADIIRLEGAEPLATFKGDWYAGLPAVTRNCYGKGEGIYVGTYPDSNYLGRLLEQVFAKHHINPILEVAENVEVQQRETDEWKYLIIINHNDYEVTLSLPEDKIYQNMIDGKCFRGGELRIQGVDVAVLREHDEAGKV
notes: full-length bgaB in pET-28a (PCR from pJS-cotY-bgaB), expressed in E. coli BL21(DE3), heat treatment and Ni-NTA, free enzyme; printed as tetrameric
  Km: 2970 ± 50 µM

— article PMC7926950, “Constructing an Efficient Bacillus subtilis Spore Display by Using Cohesin−Dockerin Interactions” (Molecules, 2021)
